Reference: the RNAGym collection of RNA variant scans (doi:10.1093/nar/gkz1192)

B1: CPEB3 Ribozyme (parent)
chain: UAACAGGGGGCCACAGCAGAAGCGUUCACGUCGCAGCCCCUGUCAGAUUCUGGUGAAUCUGCGAAUUCUGCUGUAUAUCUC

Variants of: B1
Experiment: self-cleavage, relative activity (ratio to wild type); higher = more cleavage; in vitro, sequencing
Method in brief: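 Relative activity was defined as the cleaved/total read fraction for a variant divided by the same fraction for the unmutated ribozyme. CPEB3 self-cleaving ribozyme libraries were made by rounds of error-prone PCR, barcoded, and transcribed in vitro with T7 RNA polymerase for 5 hours at 37°C, and cleavage ran through transcription plus a 15 min DNase I step before EDTA. Illumina sequencing of template-switched reverse transcripts gave the reads, and DNA sequencing mapped the barcodes. Averages come from three batches, using variants with at least 5 reads.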

| Variant | self-cleavage |
| --- | --- |
| A5G G73A | 1.17 |
| A5G G73C | 1.25 |
| A5G G73U | 1.17 |
| A5G C68A | 0.46 |
| A5G C11G | 0.5 |
| A5C U78C | 0.89 |
| A5G A15C | 0.83 |
| A5G A15G | 0.6 |
| A5G A15U | 0.61 |
| C4U C29U | 0.72 |
| A5C A56G | 0.75 |
| A5G C37U | 0.63 |
| A5G U69G | 0.49 |
| A5G U69C | 0.37 |
| A5G U69A | 0.49 |
| A5G U31G | 0.47 |
| A5G U31C | 0.48 |
| A5G U31A | 0.41 |
| A5C U58A | 0.49 |
| A5C U58C | 0.58 |
| A5C U49C | 0.54 |
| A5C G6U | 0.32 |
| C4U A64U | 0.7 |
| A5C A75G | 0.69 |

| Variant | self-cleavage |
| --- | --- |
| A5G | 0.74 |
| A5C | 0.98 |
| A5C U69G | 0.67 |
| A5C U69A | 0.67 |
| A5C U69C | 0.59 |
| C4U C37U | 0.91 |
| C4U C37G | 0.9 |
| A5C G8A | 0.46 |
| A5C G8C | 0.36 |
| C4U A56G | 1.06 |
| A5G U26G | 0.55 |
| A5G U26A | 0.56 |
| A5G U26C | 0.44 |
| A5G U74G | 1.41 |
| A5G U74C | 1.01 |
| A5G U74A | 1.03 |
| C4U G7C | 0.13 |
| C4U U69C | 0.86 |
| A5C G55U | 1.13 |
| A5C C34U | 0.47 |
| A5C C34G | 0.41 |
| A5G G19C | 0.41 |
| A5G G19U | 0.45 |
| A5G G19A | 0.53 |

| Variant | self-cleavage |
| --- | --- |
| C4U C27U | 0.56 |
| A5G A20C | 0.58 |
| A5G A20U | 0.37 |
| A5G A20G | 0.54 |
| A5C U66C | 0.54 |
| A5C U48C | 0.94 |
| C4U A45U | 0.47 |
| C4U A45G | 1.25 |
| A5G C23G | 0.61 |
| A5G C23U | 0.36 |
| A5G G42A | 0.4 |
| A5G G42C | 0.49 |
| A5G A56U | 0.43 |
| A5G A56G | 0.39 |
| A5C A47G | 0.78 |
| A5C A47U | 0.53 |
| A5G G8U | 0.46 |
| A5G G8A | 0.23 |
| A5G A35U | 0.36 |
| A5G A35G | 1.18 |
| A5G A35C | 0.85 |
| A5G A47C | 0.59 |
| A5G A47U | 0.34 |
| A5G A47G | 0.65 |

| Variant | self-cleavage |
| --- | --- |
| A5G U49C | 0.31 |
| A5G U49A | 0.53 |
| A5G G6U | 0.23 |
| A5G G6A | 0.29 |
| A5C U72C | 1.09 |
| A5C U72A | 0.98 |
| C4U U58C | 1.06 |
| C4U A18U | 0.73 |
| A5G U43G | 0.3 |
| A5G U43C | 0.43 |
| A5G U43A | 0.84 |
| C4U G52A | 1.26 |
| A5C U80C | 1.05 |
| A5C U80A | 1.19 |
| C4U A28G | 1.03 |
| C4U A28U | 1.08 |
| A5G C17U | 0.47 |
| A5G C17A | 0.3 |
| A5G C50U | 0.5 |
| A5G G61A | 0.49 |
| A5G U25C | 0.39 |
| A5G U25A | 0.42 |
| A5G U25G | 0.55 |
| A5G A77U | 0.78 |

| Variant | self-cleavage |
| --- | --- |
| A5G A77G | 0.71 |
| A5G C44U | 0.43 |
| C4U U74C | 1.18 |
| A5C U51C | 0.6 |
| C4U U51C | 1.16 |
| C4U U51A | 0.98 |
| A5G G24U | 0.24 |
| A5G G24C | 0.89 |
| A5C G30U | 0.24 |
| A5C G30A | 0.19 |
| C4U U78C | 1.14 |
| C4U U78A | 0.9 |
| A5C A28G | 0.63 |
| A5C A28U | 1.12 |
| C4U | 1.17 |
| C4U U72C | 1.12 |
| C4U U72A | 1.01 |
| C4U U60G | 0.86 |
| C4U U60A | 0.95 |
| C4U U60C | 0.75 |
| C4U A47G | 1.15 |
| A5G C32G | 0.39 |
| A5G C32U | 0.48 |
| A5G C32A | 0.28 |

| Variant | self-cleavage |
| --- | --- |
| A5C U60C | 0.64 |
| A5C U60A | 0.64 |
| A5C U60G | 0.67 |
| A5C A64G | 1 |
| A5C A64U | 1 |
| A5G U41A | 0.32 |
| A5G U41C | 0.5 |
| A5G U41G | 0.28 |
| C4U A13C | 1.21 |
| A5G U72G | 0.79 |
| A5G U72A | 0.48 |
| A5G U72C | 0.77 |
| C4U U43C | 0.93 |
| C4U G42A | 0.32 |
| A5G C14U | 0.8 |
| A5C C32G | 0 |
| C4U G10U | 0.25 |
| C4U G10A | 0.63 |
| A5C C17A | 0.19 |
| A5C U31C | 0.8 |
| A5C U31A | 0.75 |
| A5G G63A | 0.61 |
| A5G G63U | 0.95 |
| A5G G63C | 0.5 |

| Variant | self-cleavage |
| --- | --- |
| A5G A21C | 0.39 |
| A5G A21G | 0.43 |
| A5G A21U | 0.33 |
| A5G U54C | 0.64 |
| A5G U54A | 0.82 |
| A5G U54G | 0.47 |
| C4U C12U | 1.21 |
| A5G G9A | 0.39 |
| C4U U26A | 1.13 |
| C4U U26C | 0.88 |
| C4U C17U | 1.05 |
| A5G C40U | 0.27 |
| A5G C40G | 0.22 |
| A5G C40A | 0.26 |
| A5C A15G | 0.96 |
| A5C A15C | 0.81 |
| A5C A15U | 0.99 |
| C4U G63U | 1.23 |
| A5G C81A | 1.1 |
| C4U A57G | 1.05 |
| A5C U74C | 1.19 |
| C4U U76C | 1.16 |
| A5G C34G | 0.52 |
